Experimental data: patent US20250154236A1, “PREVENTION AND TREATMENT OF HEADACHES” (GlaxoSmithKline Intellectual Property (No. 3) Limited, priority 2022, published 2025)
Where two headings read alike, the source gives them in different places. Each block holds one molecule with its values, some of them ahead of it.

Columns and labels:
[1] = test system: adult rat trigeminal ganglia neurons; test: CGRP release from cultured rat trigeminal ganglia neurons (ELISA); assay type: cell-based; conditions: Neuron, 0.5 h
[2] = test system: adult rat trigeminal ganglia neurons; test: as above; assay type: cell-based
Procedure: (§1) TG Cultures were prepared from 8-10-week Sprague-Dawley rats. Following cervical dislocation and cardiac cessation, trigeminal ganglia (TG) were dissociated and collected in ice cold HBSS buffer. TGs were digested in 20 U/ml papain for 20 min followed by another 20-min enzymatic digestion in 2% Collagenase Type 4 and Dispase II in 37° C. water bath. Digested TG ganglia were suspended in Leibovitz's L15 medium containing 10% Fetal Bovine Serum, 1% penicillin/streptomycin, 18.5 mM NaHCO3, 38 mM glucose. Cell suspensions were filtered in a 70 μm then a 40 μm cell strainer and were layered onto Leibovitz's L15 medium containing 4% BSA cushion followed by slow speed centrifuge at 100 g, 10 min. Cell pellets were suspended with DMEM medium containing 10% Fetal Bovine Serum and 1% penicillin/streptomycin. Cells were plated onto 96-well plates and cultured for 24 hours at 37° C., 5% CO2. Recombinant rat artemin protein and vehicle control buffer were added into appropriate wells for 24-hour pre-incubation as needed. For experiments testing the effect of an anti-artemin antibody or RET inhibitor, these agents were added to the TG culture simultaneously with artemin for 24 h for CGRP and SP assay or 48 h for PACAP assay. After 24 h or 48 h incubation, cell culture medium was removed and assay buffer containing TRPV1 agonist capsaicin (CAP) or TRPA1 agonist allyl isothiocyanate (AITC) were added into wells and incubated at 37° C., 10 min to trigger neuropeptide release. At the end of stimulation, the supernatant was collected and CGRP and SP content were measured using ELISA assay kits (Bertin Bioreagent). For PACAP assay, cells were cultured and pre-incubated with artemin for 48 hours prior to agonist stimulation to trigger PACAP release. PACAP content in supernatant was measured using an in-house developed ELISA assay.

[3] = test system: rat (preclinical migraine model); test: Artemin dural infusion study, periorbital von Frey sensitivity; assay type: in vivo; conditions: local dural infusion daily for five consecutive days, 0.018, 0.18 and 1.8 μg; versus vehicle, first two weeks
Procedure: Briefly, three different doses of rat artemin protein, inflammatory soup cocktail and vehicle buffer were administered daily via a stainless-steel cannula (22GA, Plastics One) embedded onto dura for 5 consecutive days to produce persistent facial hypersensitivity. Sensory testing occurred during the day using von Frey filaments with reproducible calibrated buckling forces varying from 0.4-10 g utilizing the simplified Chaplan up-and-down method. Allodynia was tested by perpendicularly touching the periorbital region causing slight buckling of the filament for approximately 5 seconds. The periorbital withdrawal threshold (g) was calculated based on the response pattern and the force of the final filament. The periorbital threshold data was recorded on the side of artemin, Inflammatory Soup Cocktail, or vehicle infusion only.

rat TG neurons [4] = test: Substance P release from cultured rat trigeminal ganglia neurons (ELISA); assay type: cell-based; conditions: artemin pre-incubation
Procedure: as §1, with “For experiments testing the effect of an anti-artemin antibody or RET inhibitor, these agents were added to the TG culture simultaneously with artemin for 24 h for CGRP and SP assay or 48 h for PACAP assay. After 24 h or 48 h incubation, cell culture medium was removed and assay buffer containing TRPV1 agonist capsaicin (CAP) or TRPA1 agonist allyl isothiocyanate (AITC) were added into wells and incubated at 37° C., 10 min to trigger neuropeptide release.” left out, “For PACAP assay, cells were cultured and pre-incubated with artemin for 48 hours prior to agonist stimulation to trigger PACAP release.” left out

rat TG neurons [5] = test: PACAP release from cultured rat trigeminal ganglia neurons (in-house ELISA); assay type: cell-based; conditions: artemin treatment for 48 hours
Procedure: as §1, with “For experiments testing the effect of an anti-artemin antibody or RET inhibitor, these agents were added to the TG culture simultaneously with artemin for 24 h for CGRP and SP assay or 48 h for PACAP assay. After 24 h or 48 h incubation, cell culture medium was removed and assay buffer containing TRPV1 agonist capsaicin (CAP) or TRPA1 agonist allyl isothiocyanate (AITC) were added into wells and incubated at 37° C., 10 min to trigger neuropeptide release.” left out, “For PACAP assay, cells were cultured and pre-incubated with artemin for 48 hours prior to agonist stimulation to trigger PACAP release.” left out

Molecule: C=CCN=C=S [AITC, allyl isothiocyanate, reference compound]
EC50 ([1]; Rattus norvegicus, read-out: EC50 of AITC for CGRP release): 6600 nM
EC50 ([2]; Rattus norvegicus, Neuron, 24 h, read-out: EC50 of AITC for CGRP release): 6940 nM
EC50 ([2]; Rattus norvegicus, Neuron, read-out: EC50 of AITC for CGRP release): 17800 nM

EC50 ([1]; CAP+ARTN (30 min), 10 ng/ml rat artemin, read-out: EC50 of CAP for CGRP release): 17.9 nM
EC50 ([2]; Neuron, CAP+ARTN (24 h), 10 ng/ml rat artemin, read-out: EC50 of CAP for CGRP release): 20.2 nM
EC50 ([2]; Rattus norvegicus, Neuron, CAP alone, no artemin, read-out: EC50 of CAP for CGRP release): 21.6 nM
Molecule: COc1cc(CNC(=O)CCCC/C=C/C(C)C)ccc1O [CAP, capsaicin, reference compound]

EC50 for artemin-potentiation of CGRP release ([2]; AITC stimulation, 24 hours of treatment): 0.092 ng/mL
EC50 ([2]; AITC stimulation, 24 hours of treatment, read-out: EC50 for artemin-potentiation of CGRP release): 0.0038 nM
EC50 for artemin-potentiation of CGRP release ([2]; CAP stimulation, 24 hours of treatment): 0.028 ng/mL
B1: artemin: Recombinant rat artemin protein, member of GDNF ligand family (protein)
chain: AGTRSSRARATDARGCRLRSQLVPVSALGLGHSSDELIRFRFCSGSCRRARSPHDLSLASLLDAGALRSPPGSRPISQPCCRPTRYEAVSFMDVNSTWRTVDHLSATACGCLG
periorbital sensitivity to mechanical stimulation [3]: significantly increased
effect on CAP- and AITC-stimulated Substance P (SP) release (rat TG neurons [4]): dose-dependently increased
artemin concentration reaching maximal effect on stimulated CGRP release ([2]; CAP and AITC fixed at ~EC50, artemin range 0.001 to 100 ng/ml): 1 ng/mL
effect on CAP- and AITC-stimulated PACAP release (rat TG neurons [5]): potentiated
